Data published in publication PMC9482650, “Quantitative fragmentomics allow affinity mapping of interactomes” (Nature Communications, 2022).

T1: ARHGEF11, O15085
T1 sequence (O15085 42-136, limits assumed, looked up): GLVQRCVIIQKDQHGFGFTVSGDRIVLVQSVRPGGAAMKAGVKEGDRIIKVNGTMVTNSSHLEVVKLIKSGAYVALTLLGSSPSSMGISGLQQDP

T2: FRMPD1, Q5SYB0
T2 sequence (Q5SYB0 52-145, limits assumed, looked up): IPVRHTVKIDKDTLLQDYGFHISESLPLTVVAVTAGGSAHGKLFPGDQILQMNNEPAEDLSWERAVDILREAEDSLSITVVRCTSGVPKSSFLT

T3: DFNB31_3, Q9P202
T3 sequence (Q9P202 811-907, limits assumed, looked up): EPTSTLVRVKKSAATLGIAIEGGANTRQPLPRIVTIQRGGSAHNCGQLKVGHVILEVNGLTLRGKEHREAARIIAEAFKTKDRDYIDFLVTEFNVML

T4: GRIP1_5, Q9Y3R0
T4 sequence (Q9Y3R0 568-668, limits assumed, looked up): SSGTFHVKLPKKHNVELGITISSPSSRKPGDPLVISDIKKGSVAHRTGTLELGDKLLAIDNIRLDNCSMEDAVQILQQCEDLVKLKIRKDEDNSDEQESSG

T5: PARD3B_1, Q8TEW8
T5 sequence (Q8TEW8 196-299, limits assumed, looked up): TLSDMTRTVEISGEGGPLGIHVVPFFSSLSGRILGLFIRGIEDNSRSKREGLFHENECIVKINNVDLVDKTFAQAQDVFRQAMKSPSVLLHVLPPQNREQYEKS

T6: PCLO, Q9Y6V0
T6 sequence (Q9Y6V0 4491-4600, limits assumed, looked up): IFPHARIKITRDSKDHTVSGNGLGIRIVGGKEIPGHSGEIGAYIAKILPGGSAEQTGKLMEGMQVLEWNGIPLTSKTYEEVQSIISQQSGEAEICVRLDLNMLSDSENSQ

T7: LIN7C, Q9NUP9
T7 sequence (Q9NUP9 88-185, limits assumed, looked up): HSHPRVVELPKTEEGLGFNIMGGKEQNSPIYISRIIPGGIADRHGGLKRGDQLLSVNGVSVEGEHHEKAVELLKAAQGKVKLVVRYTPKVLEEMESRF

T8: ARHGAP21, Q5T5U3
T8 sequence (Q5T5U3 45-169, limits assumed, looked up): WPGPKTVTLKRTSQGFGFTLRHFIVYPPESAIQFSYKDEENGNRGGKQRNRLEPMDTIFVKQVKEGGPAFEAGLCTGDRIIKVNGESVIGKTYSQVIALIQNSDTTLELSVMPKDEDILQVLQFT

T9: MPP2, Q14168
T9 sequence (Q14168 180-250, limits assumed, looked up): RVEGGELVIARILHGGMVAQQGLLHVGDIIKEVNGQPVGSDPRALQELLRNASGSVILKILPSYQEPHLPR

T10: NHERF3_3, Q5T2W1
T10 sequence (Q5T2W1 238-333, limits assumed, looked up): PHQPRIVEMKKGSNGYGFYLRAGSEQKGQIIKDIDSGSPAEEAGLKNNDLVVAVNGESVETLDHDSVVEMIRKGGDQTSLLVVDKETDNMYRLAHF

T11: LIN7B, Q9HAP6
T11 sequence (Q9HAP6 88-185, limits assumed, looked up): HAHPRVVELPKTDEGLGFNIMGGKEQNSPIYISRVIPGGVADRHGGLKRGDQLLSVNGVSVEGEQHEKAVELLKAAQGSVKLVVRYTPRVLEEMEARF

T12: PTPN13_1, Q12923
T12 sequence (Q12923 1088-1188, limits assumed, looked up): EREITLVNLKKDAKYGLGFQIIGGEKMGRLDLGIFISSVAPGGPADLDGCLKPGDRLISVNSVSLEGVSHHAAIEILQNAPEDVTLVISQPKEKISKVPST


Tests used:
Test in all cases: holdup assay
Set-up in all cases: key: below the threshold = too weak to quantify, mostly under pKd 3.1 to 4
Settings in all cases: plain residues with an end cap or a label only (N-terminal biotin on a linker: ado-ado)
ARHGEF11, O15085 = molecular target: T1, ARHGEF11, O15085
FRMPD1, Q5SYB0 = molecular target: T2, FRMPD1, Q5SYB0
DFNB31_3, Q9P202 = molecular target: T3, DFNB31_3, Q9P202
GRIP1_5, Q9Y3R0 = molecular target: T4, GRIP1_5, Q9Y3R0
NOS1, P29475 = molecular target: NOS1, P29475
NOS1, P29475, sequence (P29475 9-101): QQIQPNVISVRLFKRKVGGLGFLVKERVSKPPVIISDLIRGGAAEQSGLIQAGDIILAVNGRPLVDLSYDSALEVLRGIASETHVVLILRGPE

PARD3B_1, Q8TEW8 = molecular target: T5, PARD3B_1, Q8TEW8
IL16_3, Q14005 = molecular target: IL16_3, Q14005
IL16_3, Q14005, sequence (Q14005 1107-1207): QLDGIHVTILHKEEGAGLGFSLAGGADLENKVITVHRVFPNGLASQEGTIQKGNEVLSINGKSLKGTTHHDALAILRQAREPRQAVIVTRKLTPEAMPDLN

PCLO, Q9Y6V0 = molecular target: T6, PCLO, Q9Y6V0
GRID2IP_2, A4D2P6 = molecular target: GRID2IP_2, A4D2P6
GRID2IP_2, A4D2P6, sequence (A4D2P6 272-370): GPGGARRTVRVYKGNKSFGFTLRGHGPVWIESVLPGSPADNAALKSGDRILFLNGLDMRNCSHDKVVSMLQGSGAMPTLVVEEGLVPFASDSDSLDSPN

GRIP2_4, Q9C0E4 = molecular target: GRIP2_4, Q9C0E4
GRIP2_4, Q9C0E4, sequence (Q9C0E4 446-548): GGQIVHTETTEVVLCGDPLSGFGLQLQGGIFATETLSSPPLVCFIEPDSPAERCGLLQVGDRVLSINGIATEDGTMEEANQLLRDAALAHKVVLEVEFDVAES

LNX1_1, Q8TBB1 = molecular target: LNX1_1, Q8TBB1
LNX1_1, Q8TBB1, sequence (Q8TBB1 261-371): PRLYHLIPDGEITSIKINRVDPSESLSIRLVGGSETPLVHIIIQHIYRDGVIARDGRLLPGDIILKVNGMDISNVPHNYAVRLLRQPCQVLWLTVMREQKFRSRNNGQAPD

LIN7C, Q9NUP9 = molecular target: T7, LIN7C, Q9NUP9
DLG4_2, P78352 = molecular target: DLG4_2, P78352
DLG4_2, P78352, sequence (P78352 155-259): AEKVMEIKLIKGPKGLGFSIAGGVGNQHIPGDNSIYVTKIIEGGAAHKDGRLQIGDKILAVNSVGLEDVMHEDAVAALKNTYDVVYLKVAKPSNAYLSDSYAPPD

ARHGAP21, Q5T5U3 = molecular target: T8, ARHGAP21, Q5T5U3
Inadl_10, Q8NI35 = molecular target: Inadl_10, Q8NI35
Inadl_10, Q8NI35, sequence (Q8NI35 1673-1763): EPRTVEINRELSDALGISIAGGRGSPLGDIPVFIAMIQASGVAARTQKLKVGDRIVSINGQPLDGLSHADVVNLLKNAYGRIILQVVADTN

MPP2, Q14168 = molecular target: T9, MPP2, Q14168
Inadl_8, Q8NI35 = molecular target: Inadl_8, Q8NI35
Inadl_8, Q8NI35, sequence (Q8NI35 1425-1530): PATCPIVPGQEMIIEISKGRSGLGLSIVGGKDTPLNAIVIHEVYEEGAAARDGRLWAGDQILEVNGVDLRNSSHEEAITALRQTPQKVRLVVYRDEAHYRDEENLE

GIPC2, Q8TF65 = molecular target: GIPC2, Q8TF65
GIPC2, Q8TF65, sequence (Q8TF65 112-203): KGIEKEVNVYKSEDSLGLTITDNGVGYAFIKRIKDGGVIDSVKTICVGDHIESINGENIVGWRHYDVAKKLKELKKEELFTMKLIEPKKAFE

NHERF3_3, Q5T2W1 = molecular target: T10, NHERF3_3, Q5T2W1
PARD3_3, Q8TEW0 = molecular target: PARD3_3, Q8TEW0
PARD3_3, Q8TEW0, sequence (Q8TEW0 582-685): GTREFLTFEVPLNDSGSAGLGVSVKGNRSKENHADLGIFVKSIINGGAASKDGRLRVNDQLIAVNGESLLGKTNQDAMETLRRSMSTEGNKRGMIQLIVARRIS

NHERF4_2, Q86UT5 = molecular target: NHERF4_2, Q86UT5
NHERF4_2, Q86UT5, sequence (Q86UT5 220-308): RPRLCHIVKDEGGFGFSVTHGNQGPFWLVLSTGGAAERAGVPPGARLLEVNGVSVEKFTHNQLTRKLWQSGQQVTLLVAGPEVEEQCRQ

MAGI2_4, Q86UL8 = molecular target: MAGI2_4, Q86UL8
MAGI2_4, Q86UL8, sequence (Q86UL8 772-865): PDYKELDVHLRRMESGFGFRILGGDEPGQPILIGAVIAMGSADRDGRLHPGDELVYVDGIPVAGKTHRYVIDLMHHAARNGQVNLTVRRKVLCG

LIN7B, Q9HAP6 = molecular target: T11, LIN7B, Q9HAP6
PTPN13_1, Q12923 = molecular target: T12, PTPN13_1, Q12923

Row | Binder | pKd (ARHGEF11, O15085) | pKd (FRMPD1, Q5SYB0) | pKd (DFNB31_3, Q9P202) | pKd (GRIP1_5, Q9Y3R0) | pKd (NOS1, P29475) | pKd (PARD3B_1, Q8TEW8) | pKd (IL16_3, Q14005) | pKd (PCLO, Q9Y6V0) | pKd (GRID2IP_2, A4D2P6) | pKd (GRIP2_4, Q9C0E4) | pKd (LNX1_1, Q8TBB1) | pKd (LIN7C, Q9NUP9) | pKd (DLG4_2, P78352) | pKd (ARHGAP21, Q5T5U3) | pKd (Inadl_10, Q8NI35) | pKd (MPP2, Q14168) | pKd (Inadl_8, Q8NI35) | pKd (GIPC2, Q8TF65) | pKd (NHERF3_3, Q5T2W1) | pKd (PARD3_3, Q8TEW0) | further results
1 | VISERNSTTV [C3AR1, Q16581] | 4.45 | below the threshold | below the threshold | below the threshold | below the threshold | below the threshold | below the threshold | below the threshold | 3.66 | below the threshold | 3.61 | below the threshold | 4.65 | 3.96 | below the threshold | below the threshold | 3.54 | below the threshold | below the threshold | below the threshold | pKd (NHERF4_2, Q86UT5): below the threshold; pKd (MAGI2_4, Q86UL8): 4.44; pKd (LIN7B, Q9HAP6): below the threshold; pKd (PTPN13_1, Q12923): below the threshold
2 | REVVMRVTTV [MARCHF9, Q86YJ5] | 4.65 | below the threshold | 4.31 | below the threshold | 3.76 | below the threshold | below the threshold | below the threshold | 4.13 | below the threshold | 4.41 | 4.47 | 5.27 | below the threshold | 3.6 | below the threshold | 5.46 | below the threshold | below the threshold | below the threshold | pKd (NHERF4_2, Q86UT5): 3.49; pKd (MAGI2_4, Q86UL8): 4.77; pKd (LIN7B, Q9HAP6): 4.16; pKd (PTPN13_1, Q12923): below the threshold
3 | QELLEYETTV [XKR7, Q5GH72] | 4.56 | below the threshold | below the threshold | below the threshold | below the threshold | below the threshold | below the threshold | below the threshold | 3.81 | below the threshold | 4.57 | 4.79 | 4.91 | 4.19 | below the threshold | below the threshold | 3.59 | 4.38 | below the threshold | 4.19 | pKd (NHERF4_2, Q86UT5): below the threshold; pKd (MAGI2_4, Q86UL8): 4.26; pKd (LIN7B, Q9HAP6): 4.5; pKd (PTPN13_1, Q12923): below the threshold
4 | FEEEAEEEVA [TUBB4B, P68371] | below the threshold | below the threshold | 3.89 | below the threshold | below the threshold | 3.98 | below the threshold | below the threshold | below the threshold | below the threshold | below the threshold | 3.76 | below the threshold | below the threshold | below the threshold | 3.77 | below the threshold | below the threshold | below the threshold | below the threshold | pKd (NHERF4_2, Q86UT5): below the threshold; pKd (MAGI2_4, Q86UL8): below the threshold; pKd (LIN7B, Q9HAP6): 3.58; pKd (PTPN13_1, Q12923): below the threshold
5 | PDGEMMEVLI [AMOTL1, Q8IY63] | below the threshold | below the threshold | 3.65 | below the threshold | 4.01 | 4.95 | below the threshold | below the threshold | below the threshold | below the threshold | below the threshold | below the threshold | below the threshold | 3.53 | below the threshold | below the threshold | below the threshold | below the threshold | below the threshold | 5.29 | pKd (NHERF4_2, Q86UT5): below the threshold; pKd (MAGI2_4, Q86UL8): below the threshold; pKd (LIN7B, Q9HAP6): 3.72; pKd (PTPN13_1, Q12923): below the threshold
6 | WRSKRTDTLL [RAMP3, O60896] | 3.47 | below the threshold | below the threshold | below the threshold | 3.89 | 4.32 | below the threshold | below the threshold | below the threshold | below the threshold | below the threshold | below the threshold | 3.98 | 4.27 | below the threshold | below the threshold | below the threshold | below the threshold | 3.48 | 3.48 | pKd (NHERF4_2, Q86UT5): below the threshold; pKd (MAGI2_4, Q86UL8): 3.91; pKd (LIN7B, Q9HAP6): below the threshold; pKd (PTPN13_1, Q12923): below the threshold
